Data reported in publication doi:10.1101/2025.06.13.659557.
Like-named read-outs stand apart in the source and are kept apart here.

How the values were obtained:
mCherry-RalB = mCherry-RalB (UniProt P11234); assay: co-IP
GFP-RalB [1] = target: GFP-RalB (UniProt P11234); assay: pull-down
GFP-RalA [2] = target: GFP-RalA (UniProt P11233); assay: pull-down
[3] = target: angiomotin (GFP-fused bait) (UniProt Q4VCS5); assay: pull-down
GFP-RalB [4] = target: GFP-RalB (UniProt P11234); assay: pull-down; remark: listed apart in the source
GFP-RalA [5] = target: GFP-RalA (UniProt P11233); assay: pull-down; remark: listed apart in the source

Chain of UniProt P11233 (P11233 whole entry, the tested form may be a part): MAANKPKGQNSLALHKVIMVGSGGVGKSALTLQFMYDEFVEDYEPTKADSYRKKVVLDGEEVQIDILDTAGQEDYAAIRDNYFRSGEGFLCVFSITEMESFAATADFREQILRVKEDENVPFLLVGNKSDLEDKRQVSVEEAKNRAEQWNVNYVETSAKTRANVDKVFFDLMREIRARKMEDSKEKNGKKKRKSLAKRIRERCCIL
Chain of UniProt Q4VCS5 (Q4VCS5 whole entry, the tested form may be a part): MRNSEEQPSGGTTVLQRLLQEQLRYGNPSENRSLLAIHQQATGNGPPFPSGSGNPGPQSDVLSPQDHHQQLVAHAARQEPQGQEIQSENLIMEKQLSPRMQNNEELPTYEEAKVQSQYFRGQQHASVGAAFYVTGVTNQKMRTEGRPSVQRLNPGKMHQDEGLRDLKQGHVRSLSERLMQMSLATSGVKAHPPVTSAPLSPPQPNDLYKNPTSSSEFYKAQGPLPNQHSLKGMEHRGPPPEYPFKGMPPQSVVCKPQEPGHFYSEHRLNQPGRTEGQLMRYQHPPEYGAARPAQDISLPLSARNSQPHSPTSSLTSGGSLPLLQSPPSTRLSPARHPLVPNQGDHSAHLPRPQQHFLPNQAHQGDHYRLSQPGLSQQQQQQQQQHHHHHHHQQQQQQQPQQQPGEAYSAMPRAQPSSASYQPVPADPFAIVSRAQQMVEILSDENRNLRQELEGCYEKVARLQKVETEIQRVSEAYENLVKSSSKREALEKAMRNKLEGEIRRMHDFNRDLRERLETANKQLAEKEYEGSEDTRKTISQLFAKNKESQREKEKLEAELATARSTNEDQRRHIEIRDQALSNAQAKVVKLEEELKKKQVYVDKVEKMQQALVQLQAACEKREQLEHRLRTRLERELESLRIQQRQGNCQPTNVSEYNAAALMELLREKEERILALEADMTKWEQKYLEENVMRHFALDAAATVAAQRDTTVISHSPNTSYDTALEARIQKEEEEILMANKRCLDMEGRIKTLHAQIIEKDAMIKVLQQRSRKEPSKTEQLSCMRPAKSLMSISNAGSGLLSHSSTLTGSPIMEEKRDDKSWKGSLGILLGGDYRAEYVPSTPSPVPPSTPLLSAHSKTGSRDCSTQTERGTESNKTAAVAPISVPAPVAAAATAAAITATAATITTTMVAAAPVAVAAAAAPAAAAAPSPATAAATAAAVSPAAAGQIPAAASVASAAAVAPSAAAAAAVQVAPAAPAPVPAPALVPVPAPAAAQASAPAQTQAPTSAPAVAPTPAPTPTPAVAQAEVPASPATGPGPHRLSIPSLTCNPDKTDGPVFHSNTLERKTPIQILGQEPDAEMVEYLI

fold binding over the GFP control (GFP-RalB [1])	fold binding over the GFP control (GFP-RalA [2])	fold binding over the GFP control [3]	fold binding over the GFP control (GFP-RalB [4])	fold binding over the GFP control (GFP-RalA [5])	Substance	percent reduction of RalB binding to Exo84 (mCherry-RalB)	percent reduction of RalB binding to Sec5 (mCherry-RalB)
					Merlin-GFP (wild type) (from UniProt P35240 1-595) (natural protein)	50%	50%
7 fold	7 fold	> 65 fold	> 50 fold	> 50 fold	Merlin-NanoLuc (from UniProt P35240 1-595) (natural protein)		
